According to publication PMC5687670, “hYSK1 promotes cancer cell proliferation and migration through negative regulation of p16^INK4a under hypoxic conditions” (Oncotarget, 2017):

Target: T1, hYSK1 on the ProtoArray Human Protein Microarray (human, UniProt O00506 1-426)
T1 construct: hYSK1, human Ste20 family serine/threonine protein kinase; one of 1,800 recombinant human proteins on the array; also called human analog of YSK1; source: bought: ProtoArray Human Protein Microarray (v.1.0), recombinant human protein printed on nitrocellulose slide
T1 sequence (O00506 whole entry): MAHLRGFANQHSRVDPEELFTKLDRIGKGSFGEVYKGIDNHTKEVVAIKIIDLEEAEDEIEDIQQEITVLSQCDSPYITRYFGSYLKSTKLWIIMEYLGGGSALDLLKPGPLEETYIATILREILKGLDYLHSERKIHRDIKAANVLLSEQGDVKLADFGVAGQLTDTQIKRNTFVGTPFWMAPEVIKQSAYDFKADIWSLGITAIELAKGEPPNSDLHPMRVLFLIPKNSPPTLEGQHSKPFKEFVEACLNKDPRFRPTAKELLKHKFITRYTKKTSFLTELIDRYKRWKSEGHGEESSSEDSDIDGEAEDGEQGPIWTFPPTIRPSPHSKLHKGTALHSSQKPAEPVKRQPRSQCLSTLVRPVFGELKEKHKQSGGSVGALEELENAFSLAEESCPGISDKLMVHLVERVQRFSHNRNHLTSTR
Assay: peptide or protein array; ProtoArray Human Protein Microarray (v.1.0), 1,800 recombinant human proteins on nitrocellulose slides, blocked and probed with biotin-labeled p16^INK4a; detected with streptavidin-Alexa Fluor 647
Conditions: both partners purified

B1: biotin-labeled p16^INK4a (natural protein, UniProt P42771 1-156, looked up)
chain: MEPAAGSSMEPSADWLATAAARGRVEEVRALLEAGALPNAPNSYGRRPIQVMMMGSARVAELLLLHGAEPNCADPATLTRPVHDAAREGFLDTLVVLHRAGARLDVRDAWGRLPVDLAEELGHRDVARYLRAAAGGTRGSNHARIDAAEGPSDIPD
modifications: biotin (biotinylated; site not stated)
notes: probe for the protein microarray
- binding result: binds
